This experiment addresses T1, recombinant human coronavirus SARS-CoV-2 Spike Glycoprotein RBD, isolate Wuhan-Hu-1 (Abcam), with C-terminal … (SARS-CoV-2, isolate Wuhan-Hu-1, UniProt P0DTC2 319-541).
T1 construct: also called SARS-COV2 spike protein; COVID-19 spike protein
The experiment in a line: ELISA, RBD coated, anti-c-Myc-HRP detection. (In general: An ELISA detects its analyte on a solid surface through an enzyme-linked reagent.)

B1: SARS-CoV-2 VHH-cMYC-12xHis-tag (VH ab8) expressed by E. coli WK6 cells from the pHENC6-VHH plasmid (VHH)
VHH: EVQLVESGGGLVQPGGSLRLSCAASGFTFDDYAMSWVRQAPGKGLEWIGRMYNNGRTSYNPSLKSLVTISRDNSKNTLYLQMNSLRAEDTATYYCARDNLGYRPSENLYGMDVWGQGTTVTVSS
notes: also called bacteria-derived VHH antibody; pHENC6-VHH-c-Myc-12xHis-tag
Consider B1, for which the binding result is listed as “binds”.

B2: SARS-CoV-2 VHH-cMYC-12xHis-tag (VH ab8) expressed by EXPI293F mammalian cells from pCDNA 3.4 VHH (VHH)
VHH: B1 VHH
notes: also called VHH antibodies obtained in mammalian cells; pCDNA 3.4 VHH-c-Myc-12xHis-tag
Consider B2, for which the binding result is “binds”.
